The values below come from US20250129150A1 (APOGEE THERAPEUTICS, published 2025).

Assay [1] deals with T1, hIL-13 (human, UniProt P35225 35-146, limits assumed). The assay is described as follows: cell-based or functional assay.
The target in assay [2] is T1, hIL-13. The assay is described as follows: cell-based or functional assay. The source holds these as a separate data set.
The target in assay [3] is T2, Recombinant Cynomolgus IL-13 Protein, His Tag (SINO BIOLOGICAL, Cat. 11057-C07H) (cynomolgus monkey, UniProt Q5I6E4 19-132 (Macaca thibetana entry)).
T2 construct: also called Cyno IL-13; cynomolgus monkey IL-13
T2 chain: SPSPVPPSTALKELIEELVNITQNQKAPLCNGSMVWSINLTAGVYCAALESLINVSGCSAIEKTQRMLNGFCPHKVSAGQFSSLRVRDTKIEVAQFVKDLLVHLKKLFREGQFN
The assay is described as follows: SPR (Biacore 8K), mAb captured on Protein G chip, IL-13 as analyte. As for the experimental part:
(§1) Samples were injected in a multi-cycle manner over freshly captured mAb, by regenerating the capture surfaces with injection of glycine pH 1.5 for 30 sec at a flow rate of 30 μL/min. The data was processed and analyzed with Biacore Insight Evaluation Software Version 2.0.15.12933 (GE Healthcare) as follows. […] The responses from the two buffer blank injections were then subtracted from the reference subtracted data (2-1) to yield double-referenced data, which were fit to an 1:1 binding model to determine the apparent association (ka) and dissociation rate constants (kd). Their ratio provided the apparent equilibrium dissociation constant or affinity constant (KD=kd/ka).
For orientation: Surface plasmon resonance follows binding to a sensor surface in real time, without labels.

Assay [4] has as its target T3, Recombinant Human IL-13 Protein, His Tag (Acro Cat. IL3-H52H4) (human, UniProt P35225 35-146).
T3 construct: Bought protein; also called Hu IL-13; not shown: His Tag
The description is as above. As for the experimental part:
as §1

Assay [5] concerns the target T1, hIL-13. The assay is described as follows: cell-based or functional assay. The source holds these as a separate data set.
A further assay has as its target biotinylated hIL-13 (human, UniProt P35225 35-146, limits assumed, biotinylated (site not stated)). The assay is described as follows: FACS; blockade of biotinylated hIL-13 (0.05 ug/mL) binding to HEK293 cells expressing hIL-13Rα1/hIL-4Rα. As for the experimental part: Briefly, HEK293 previously transduced to stably express both hIL-13Rα and hIL-4Rα were cultured and harvested. Cells were seeded at 200,000 cells in 100 uL per well. Cells were washed and the supernatant was discarded. […] The cells were stained in this mixture at 4° C. for 1 hour. […] Cells were incubated at 4° C. for 1 hour, protected from light. Cells were then washed and the median fluorescence intensity (MFI) of cells in each well were recorded by FACS using a BD FACSCanto II. Subsequent data were analyzed using GraphPad Prism.
In general terms: A flow cytometer gives signals particle by particle.

In assay [6] the target is T1, hIL-13. The assay is described as follows: ELISA. A general note: In an ELISA, binding on a coated surface is turned into a signal by an enzyme label.
The target of assay [7] is T1, hIL-13. The assay is described as follows: cell-based or functional assay. The source holds these as a separate data set.

For orientation: Kd means the concentration at which binding is half-saturated. A word on the IC50: it is the midpoint of a concentration-inhibition curve.

Sequence of biotinylated hIL-13 (P35225 other isoform, or with tags, fused parts or gaps limits assumed): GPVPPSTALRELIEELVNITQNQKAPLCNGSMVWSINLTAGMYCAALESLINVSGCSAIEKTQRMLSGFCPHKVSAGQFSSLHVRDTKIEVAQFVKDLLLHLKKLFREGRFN
T3 sequence (P35225 other isoform, or with tags, fused parts or gaps limits assumed): as above
T1 sequence (P35225 other isoform, or with tags, fused parts or gaps limits assumed): as above

B1: Construct 142 (antibody, human IgG4, kappa)
heavy: EVQLQESGPGLVKPSETLSLTCTVSGFSLNAYSVNWIRQPPGKGLEWLGMIWGDGKIVYNSALKSRLTISKDSSKNQVSLKLSSVTAADTAVYYCAGDGYYPYAMDNWGQGTTVTVSSASTKGPSVFPLAPCSRSTSESTAALGCLVKDYFPEPVTVSWNSGALTSGVHTFPAVLQSSGLYSLSSVVTVPSSSLGTKTYTCNVDHKPSNTKVDKRVESKYGPPCPSCPAPEFLGGPSVFLFPPKPKDTLYITREPEVTCVVVDVSQEDPEVQFNWYVDGVEVHNAKTKPREEQFNSTYRVVSVLTVLHQDWLNGKEYKCKVSNKGLPSSIEKTISKAKGQPREPQVYTLPPSQEEMTKNQVSLTCLVKGFYPSDIAVEWESNGQPENNYKTTPPVLDSDGSFFLYSRLTVDKSRWQEGNVFSCSVMHEALHNHYTQKSLSLSLGK
light: DIQLTQSPSSLSASVGDRVTITCRASKSVDSYGNSFMHWYQQKPGKAPKLLIYLASELESGVPSRFSGSGSGTDFTLTISSLQPEDFATYYCQQNNEDPRTFGGGTKVEIKRTVAAPSVFIFPPSDEQLKSGTASVVCLLNNFYPREAKVQWKVDNALQSGNSQESVTEQDSKDSTYSLSSTLTLSKADYEKHKVYACEVTHQGLSSPVTKSFNRGEC
notes: also called HC1; LC6_m8
For B1, the “TARC Inhibition IC50 (A549 cells)” value with hIL-13 [1] came out at 0.92 nM. In the assay with hIL-13 [2], the “pSTAT6 Inhibition IC50 (HT-29 cells)” value came out at 0.29 nM. Besides, the Kd in assay [3] worked out at 0.326 nM; in assay [4] it was 0.108 nM; in the assay with hIL-13 [6] it was 0.054 nM. The “TF-1 Proliferation Inhibition IC50” value in the assay with hIL-13 [5] amounted to 0.2 nM. Also, in the assay with biotinylated hIL-13, the IC50 was 0.77 nM.

B2: Construct 15 (antibody, human IgG1, kappa)
heavy: EVQLQESGPGLVKPSETLSLTCTVSGFSLNAYSVNWIRQPPGKGLEWLGMIWGDGKIVYNSALKSRLTISKDSSKNQVSLKLSSVTAADTAVYYCAGDGYYPYAMDNWGQGTTVTVSSASTKGPSVFPLAPSSKSTSGGTAALGCLVKDYFPEPVTVSWNSGALTSGVHTFPAVLQSSGLYSLSSVVTVPSSSLGTQTYICNVNHKPSNTKVDKKVEPKSCDKTHTCPPCPAPELAGAPSVFLFPPKPKDTLYITREPEVTCVVVDVSHEDPEVKFNWYVDGVEVHNAKTKPREEQYNSTYRVVSVLTVLHQDWLNGKEYKCKVSNKALPAPIEKTISKAKGQPREPQVYTLPPSRDELTKNQVSLTCLVKGFYPSDIAVEWESNGQPENNYKTTPPVLDSDGSFFLYSKLTVDKSRWQQGNVFSCSVMHEALHNHYTQKSLSLSPG
light: DIQLTQSPSSLSASVGDRVTITCRASKSVDSYGNSFMHWYQQKPGKAPKLLIYLASNLESGVPSRFSGSGSGTDFTLTISSLQPEDFATYYCQQNNEDPRTFGGGTKVEIKRTVAAPSVFIFPPSDEQLKSGTASVVCLLNNFYPREAKVQWKVDNALQSGNSQESVTEQDSKDSTYSLSSTLTLSKADYEKHKVYACEVTHQGLSSPVTKSFNRGEC
As for B2, the “TARC Release IC50 (A549 cells)” value with hIL-13 [7] is 0.9 nM.

B3: Construct 2 (antibody, human IgG1, kappa)
heavy: QVTLRESGPALVKPTQTLTLTCTVSGFSLSAYSVNWIRQPPGKALEWLAMIWGDGKIVYNSALKSRLTISKDTSKNQVVLTMTNMDPVDTATYYCAGDGYYPYAMDNWGQGSLVTVSSASTKGPSVFPLAPSSKSTSGGTAALGCLVKDYFPEPVTVSWNSGALTSGVHTFPAVLQSSGLYSLSSVVTVPSSSLGTQTYICNVNHKPSNTKVDKKVEPKSCDKTHTCPPCPAPELAGAPSVFLFPPKPKDTLYITREPEVTCVVVDVSHEDPEVKFNWYVDGVEVHNAKTKPREEQYNSTYRVVSVLTVLHQDWLNGKEYKCKVSNKALPAPIEKTISKAKGQPREPQVYTLPPSRDELTKNQVSLTCLVKGFYPSDIAVEWESNGQPENNYKTTPPVLDSDGSFFLYSKLTVDKSRWQQGNVFSCSVMHEALHNHYTQKSLSLSPG
light: DIVMTQSPDSLSVSLGERATINCRASKSVDSYGNSFMHWYQQKPGQPPKLLIYLASNLESGVPDRFSGSGSGTDFTLTISSLQAEDVAVYYCQQNNEDPRTFGGGTKVEIKRTVAAPSVFIFPPSDEQLKSGTASVVCLLNNFYPREAKVQWKVDNALQSGNSQESVTEQDSKDSTYSLSSTLTLSKADYEKHKVYACEVTHQGLSSPVTKSFNRGEC
Regarding B3, the “TARC Release IC50 (A549 cells)” value with hIL-13 [7] came to 0.9 nM.

B4: Construct 130 (antibody, human IgG1, kappa, L234A L235A)
heavy: QVTLRESGPALVKPTQTLTLTCTVSGFSLSAYSVNWIRQPPGKALEWLAMIWGDGKIVYNSALKSRLTISKDTSKNQVVLTMTNMDPVDTATYYCAGDGYYPYAMDNWGQGSLVTVSSASTKGPSVFPLAPSSKSTSGGTAALGCLVKDYFPEPVTVSWNSGALTSGVHTFPAVLQSSGLYSLSSVVTVPSSSLGTQTYICNVNHKPSNTKVDKKVEPKSCDKTHTCPPCPAPEAAGGPSVFLFPPKPKDTLYITREPEVTCVVVDVSHEDPEVKFNWYVDGVEVHNAKTKPREEQYNSTYRVVSVLTVLHQDWLNGKEYKCKVSNKALPAPIEKTISKAKGQPREPQVYTLPPSRDELTKNQVSLTCLVKGFYPSDIAVEWESNGQPENNYKTTPPVLDSDGSFFLYSKLTVDKSRWQQGNVFSCSVMHEALHNHYTQKSLSLSPG
light: DIVMTQSPDSLSVSLGERATINCRASKSVDSYGNSFMHWYQQKPGQPPKLLIYLASNLESGVPDRFSGSGSGTDFTLTISSLQAEDVAVYYCQQNNEDPRTFGGGTKVEIKRTVAAPSVFIFPPSDEQLKSGTASVVCLLNNFYPREAKVQWKVDNALQSGNSQESVTEQDSKDSTYSLSSTLTLSKADYEKHKVYACEVTHQGLSSPVTKSFNRGEC
notes: also called Lebrikizumab-HC; Lebrikizumab-LC
For B4, the “TARC Inhibition IC50 (A549 cells)” value in the assay with hIL-13 [1] was determined as 1 nM. The “pSTAT6 Inhibition IC50 (HT-29 cells)” value in the assay with hIL-13 [2] came out at 0.28 nM. Moreover, the Kd was determined as 0.227 nM in assay [3], 0.112 nM in assay [4] and 0.027 nM with hIL-13 [6]. Besides, the “TF-1 Proliferation Inhibition IC50” value with hIL-13 [5] came to 0.15 nM. In addition, the IC50 in the assay with biotinylated hIL-13 was found to be 1.05 nM.

B5: Construct 129 (antibody, human IgG4, kappa)
heavy: QVTLRESGPALVKPTQTLTLTCTVSGFSLSAYSVNWIRQPPGKALEWLAMIWGDGKIVYNSALKSRLTISKDTSKNQVVLTMTNMDPVDTATYYCAGDGYYPYAMDNWGQGSLVTVSSASTKGPSVFPLAPCSRSTSESTAALGCLVKDYFPEPVTVSWNSGALTSGVHTFPAVLQSSGLYSLSSVVTVPSSSLGTKTYTCNVDHKPSNTKVDKRVESKYGPPCPSCPAPEFLGGPSVFLFPPKPKDTLMISRTPEVTCVVVDVSQEDPEVQFNWYVDGVEVHNAKTKPREEQFNSTYRVVSVLTVLHQDWLNGKEYKCKVSNKGLPSSIEKTISKAKGQPREPQVYTLPPSQEEMTKNQVSLTCLVKGFYPSDIAVEWESNGQPENNYKTTPPVLDSDGSFFLYSRLTVDKSRWQEGNVFSCSVLHEALHSYTQKSLSLSLGK
light: DIVMTQSPDSLSVSLGERATINCRASKSVDSYGNSFMHWYQQKPGQPPKLLIYLASNLESGVPDRFSGSGSGTDFTLTISSLQAEDVAVYYCQQNNEDPRTFGGGTKVEIKRTVAAPSVFIFPPSDEQLKSGTASVVCLLNNFYPREAKVQWKVDNALQSGNSQESVTEQDSKDSTYSLSSTLTLSKADYEKHKVYACEVTHQGLSSPVTKSFNRGEC
notes: as for B4
For B5, in the assay with hIL-13 [1], the “TARC Inhibition IC50 (A549 cells)” value was determined as 0.92 nM. Moreover, the “pSTAT6 Inhibition IC50 (HT-29 cells)” value in the assay with hIL-13 [2] came to 0.33 nM. The figures for the Kd (in assay [3]; in assay [4]; with hIL-13 [6]) were 0.882 nM, 0.239 nM and 0.036 nM, respectively. Further, the “TF-1 Proliferation Inhibition IC50” value with hIL-13 [5] was 0.21 nM. In the assay with biotinylated hIL-13, this molecule gave an IC50 of 0.71 nM.

B6: Construct 131 (antibody, human IgG1, kappa, L234A L235A)
heavy: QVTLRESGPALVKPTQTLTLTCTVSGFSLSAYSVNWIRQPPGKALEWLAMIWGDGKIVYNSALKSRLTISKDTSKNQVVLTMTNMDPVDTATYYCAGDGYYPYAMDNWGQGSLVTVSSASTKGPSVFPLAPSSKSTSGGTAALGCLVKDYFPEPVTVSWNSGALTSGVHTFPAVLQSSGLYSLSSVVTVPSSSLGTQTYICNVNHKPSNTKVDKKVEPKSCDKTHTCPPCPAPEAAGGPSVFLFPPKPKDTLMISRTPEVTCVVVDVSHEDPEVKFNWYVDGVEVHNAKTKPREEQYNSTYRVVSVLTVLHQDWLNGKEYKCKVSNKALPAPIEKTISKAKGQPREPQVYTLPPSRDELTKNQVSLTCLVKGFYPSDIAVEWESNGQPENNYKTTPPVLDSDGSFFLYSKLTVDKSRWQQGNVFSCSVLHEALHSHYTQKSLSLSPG
light: DIVMTQSPDSLSVSLGERATINCRASKSVDSYGNSFMHWYQQKPGQPPKLLIYLASNLESGVPDRFSGSGSGTDFTLTISSLQAEDVAVYYCQQNNEDPRTFGGGTKVEIKRTVAAPSVFIFPPSDEQLKSGTASVVCLLNNFYPREAKVQWKVDNALQSGNSQESVTEQDSKDSTYSLSSTLTLSKADYEKHKVYACEVTHQGLSSPVTKSFNRGEC
notes: as for B4
For the molecule B6, in the assay with hIL-13 [1], the “TARC Inhibition IC50 (A549 cells)” value was 0.99 nM. The “pSTAT6 Inhibition IC50 (HT-29 cells)” value with hIL-13 [2] was determined as 0.22 nM. The Kd amounted to 0.123 nM in assay [3], 0.0756 nM in assay [4] and 0.019 nM with hIL-13 [6]. Moreover, in the assay with hIL-13 [5], the “TF-1 Proliferation Inhibition IC50” value was 0.13 nM. Also, the IC50 with biotinylated hIL-13 was determined as 0.79 nM.
